Results on 2 molecules are retold here after patent WO2016171242A1 (dated 2016).

Experiment [1] concerns the target T1, human EPHA4 without signal sequence, FLAG-tagged, expressed from pFLAG-EPHA4 (human, UniProt P54764 20-986).
T1 construct: also called EPHA4-expressing cells; not shown: FLAG tag supplied by the vector pFLAG-GW
The experiment can be described thus: immunohistochemistry on formalin-fixed, paraffin-embedded 293F cells transiently expressing EPHA4; antibody at 2.5 μg/mL.

Experiment [2] concerns the target T2, human EPHB1 without signal sequence, FLAG-tagged, expressed from pFLAG-EPHB1 (human, UniProt P54762 18-984).
T2 construct: not shown: FLAG tag supplied by the vector pFLAG-GW
T2 sequence: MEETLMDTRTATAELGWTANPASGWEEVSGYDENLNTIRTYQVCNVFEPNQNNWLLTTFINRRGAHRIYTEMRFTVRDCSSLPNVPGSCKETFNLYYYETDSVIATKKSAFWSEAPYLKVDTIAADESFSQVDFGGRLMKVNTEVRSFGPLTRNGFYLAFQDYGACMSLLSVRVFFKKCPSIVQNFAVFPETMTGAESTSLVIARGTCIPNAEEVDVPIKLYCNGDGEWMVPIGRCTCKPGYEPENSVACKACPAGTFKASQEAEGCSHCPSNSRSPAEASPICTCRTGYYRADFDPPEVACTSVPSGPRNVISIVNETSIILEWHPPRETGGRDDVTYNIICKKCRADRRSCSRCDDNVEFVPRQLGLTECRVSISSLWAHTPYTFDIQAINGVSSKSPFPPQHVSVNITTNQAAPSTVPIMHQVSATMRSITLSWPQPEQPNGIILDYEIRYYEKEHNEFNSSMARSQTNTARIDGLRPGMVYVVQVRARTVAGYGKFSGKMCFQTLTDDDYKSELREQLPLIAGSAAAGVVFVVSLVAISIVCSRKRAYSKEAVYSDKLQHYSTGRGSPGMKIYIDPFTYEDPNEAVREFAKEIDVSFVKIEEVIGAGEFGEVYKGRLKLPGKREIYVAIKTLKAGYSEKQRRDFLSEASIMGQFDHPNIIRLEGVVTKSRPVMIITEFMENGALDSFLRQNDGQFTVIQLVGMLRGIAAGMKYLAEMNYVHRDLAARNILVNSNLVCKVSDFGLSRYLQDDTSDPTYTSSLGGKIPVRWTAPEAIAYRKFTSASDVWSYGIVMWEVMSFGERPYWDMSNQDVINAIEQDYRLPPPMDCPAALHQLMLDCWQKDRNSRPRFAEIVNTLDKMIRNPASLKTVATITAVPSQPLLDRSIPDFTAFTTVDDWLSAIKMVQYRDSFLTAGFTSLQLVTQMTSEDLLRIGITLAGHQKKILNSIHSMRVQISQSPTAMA
The experiment can be described thus: flow cytometry on 293F cells transfected with pFLAG-EPHB1. For orientation: In flow cytometry, cells or beads pass a laser one at a time.

The target of experiment [3] is T2, human EPHB1 without signal sequence, …. The experiment can be described thus: flow cytometry on transfected 293F cells.

T1 sequence (P54764 20-986): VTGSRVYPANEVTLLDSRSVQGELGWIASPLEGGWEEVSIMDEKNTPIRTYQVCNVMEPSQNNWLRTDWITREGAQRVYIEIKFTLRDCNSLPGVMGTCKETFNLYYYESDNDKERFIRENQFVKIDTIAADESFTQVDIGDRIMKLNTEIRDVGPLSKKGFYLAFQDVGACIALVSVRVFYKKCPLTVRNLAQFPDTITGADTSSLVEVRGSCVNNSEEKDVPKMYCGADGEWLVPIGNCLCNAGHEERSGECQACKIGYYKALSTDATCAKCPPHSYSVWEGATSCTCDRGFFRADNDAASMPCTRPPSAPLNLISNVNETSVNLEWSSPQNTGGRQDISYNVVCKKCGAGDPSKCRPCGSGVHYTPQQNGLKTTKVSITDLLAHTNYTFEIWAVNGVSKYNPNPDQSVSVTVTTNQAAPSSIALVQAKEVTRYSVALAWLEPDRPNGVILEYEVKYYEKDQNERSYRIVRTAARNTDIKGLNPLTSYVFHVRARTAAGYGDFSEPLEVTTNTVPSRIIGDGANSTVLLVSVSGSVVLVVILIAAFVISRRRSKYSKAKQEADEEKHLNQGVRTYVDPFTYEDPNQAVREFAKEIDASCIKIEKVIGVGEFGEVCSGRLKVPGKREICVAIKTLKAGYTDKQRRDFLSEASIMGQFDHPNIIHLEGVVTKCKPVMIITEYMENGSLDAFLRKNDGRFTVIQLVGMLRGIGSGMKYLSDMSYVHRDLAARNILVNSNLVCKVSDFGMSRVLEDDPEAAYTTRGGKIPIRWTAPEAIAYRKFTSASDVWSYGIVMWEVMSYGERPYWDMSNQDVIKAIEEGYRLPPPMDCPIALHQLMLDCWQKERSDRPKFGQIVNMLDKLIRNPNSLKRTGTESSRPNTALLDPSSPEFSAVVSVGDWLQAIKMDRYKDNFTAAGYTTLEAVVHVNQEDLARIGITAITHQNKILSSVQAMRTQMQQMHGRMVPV

B1: mouse anti-human EPHA2 antibody A201 (antibody, V domains shown)
VH: EVQLQQSGAELVKPGASVKLSCTVSGFTFKDTYVHWVKQRPEQGLEWIGRIDPANANTKYDPKFQGKASITADTSSNTAYLQLSSLPSEDTAVYYCAAYGKSAWFAYWGQGTLVTVSA
VL: DIQMTQTTSSLSASLGDRVTISCRASQDIGNYLNWYQQKPDGTVKVLIYYTSRLHSGVPSRFSGSGSGTDYSLTISNLEQEDIATYFCQQGHSLPPTFGGGTKLEIKR
notes: Mouse monoclonal antibody purified from hybridoma supernatant, isotype IgG1; also called A201 antibody
B1: the binding result in experiment [1] and in experiment [2] was “binds” throughout.

B2: mouse anti-human EPHA2 antibody A205 (antibody, V domains shown)
VH: QIQLVQSGPELKKPGETVKISCKASGYTFTDYSMNWVKQAPGKGLKWMGWINTYTGEPTYADDFKGRFAFSLETSASTAYLQINNLKNEDTATYFCASPISLLRLLDYWGQGTTLTVSS
VL: DVVMTQTPLSLPVSLGDQASIPCRSSQSLVHSNGNTYLHWYLQKPGQSPKLLIYKVSNRFSGVPDRFSGSGSGTDFTLKISRVEAEDLGVYFCSQSTHVPWTFGGGTKLEIKR
notes: Mouse monoclonal antibody purified from hybridoma supernatant, isotype IgG2b; also called A205 antibody
Consider B2, for which, in experiment [3], the binding result is listed as “no binding”.
